# B1: Calsenilin (Mus musculus), Q9QXT8 (parent)
# chain: MQRTKEAVKASDGNLLGDPGRIPLSKRESIKWQRPRFTRQALMRCCLIKWILSSAAPQGSDSSDSELELSTVRHQPEGLDQLQAQTKFTKKELQSLYRGFKNECPTGLVDEDTFKLIYSQFFPQGDATTYAHFLFNAFDADGNGAIHFEDFVVGLSILLRGTVHEKLKWAFNLYDINKDGCITKEEMLAIMKSIYDMMGRHTYPILREDAPLEHVERFFQKMDRNQDGVVTIDEFLETCQKDENIMNSMQLFENVI
# Variants of: B1
# Settings: with psn1_human PSEN1, P49768
row,effect of a mutation on the interaction,Variant
1,decreasing interaction,E234Q
2,decreasing interaction,E186Q

# Source: IntAct's records for PubMed 27009418
